Measurements published in US20030118612A1 (MAXYGEN, published 2003).

molecular target: T1, human G-CSF receptor (human, UniProt Q99062 25-836); assay: cell-based or functional assay
T1 sequence (looked up): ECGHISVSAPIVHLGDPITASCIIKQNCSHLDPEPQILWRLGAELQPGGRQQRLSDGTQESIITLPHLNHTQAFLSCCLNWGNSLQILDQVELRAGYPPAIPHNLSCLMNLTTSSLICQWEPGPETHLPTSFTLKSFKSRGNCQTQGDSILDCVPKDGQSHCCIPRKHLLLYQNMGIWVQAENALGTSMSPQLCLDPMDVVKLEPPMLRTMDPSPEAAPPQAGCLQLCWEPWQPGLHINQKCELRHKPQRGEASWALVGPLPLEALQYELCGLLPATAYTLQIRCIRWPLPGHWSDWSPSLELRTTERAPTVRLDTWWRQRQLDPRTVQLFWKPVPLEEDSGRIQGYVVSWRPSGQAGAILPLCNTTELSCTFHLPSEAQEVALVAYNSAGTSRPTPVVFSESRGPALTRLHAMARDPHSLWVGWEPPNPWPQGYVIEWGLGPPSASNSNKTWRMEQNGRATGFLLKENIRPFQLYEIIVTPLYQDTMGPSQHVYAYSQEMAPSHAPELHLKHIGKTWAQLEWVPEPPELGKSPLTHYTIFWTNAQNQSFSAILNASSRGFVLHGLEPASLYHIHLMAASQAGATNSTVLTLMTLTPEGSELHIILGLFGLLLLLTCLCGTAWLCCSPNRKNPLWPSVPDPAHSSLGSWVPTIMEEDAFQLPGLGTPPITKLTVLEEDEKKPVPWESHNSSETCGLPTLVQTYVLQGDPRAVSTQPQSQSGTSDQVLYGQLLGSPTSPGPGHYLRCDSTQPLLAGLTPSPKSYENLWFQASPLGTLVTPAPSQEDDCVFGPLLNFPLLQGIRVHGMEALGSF

Binder | EC50 (% of hG-CSF) non-conjugated | EC50 (% of hG-CSF) conjugated to SPA-PEG 5000
G-CSF variant K16/23/40R, non-conjugated (ligand) TPLGPASSLPQSFLLRCLEQVRRIQGDGAALQEKLCATYRLCHPEELVLLGHSLGIPWAPLSSCPSQALQLAGCLSQLHSGLFLYQGLLQALEGISPELGPTLDTLQLDVADFATTIWQQMEELGMAPALQPTQGAMPAFASAFQRRAGGVLVASHLQSFLEVSYRVLRHLAQP | 50 % of hG-CSF | 
G-CSF variant K16/34/40R E46K, non-conjugated (ligand) TPLGPASSLPQSFLLRCLEQVRKIQGDGAALQERLCATYRLCHPEKLVLLGHSLGIPWAPLSSCPSQALQLAGCLSQLHSGLFLYQGLLQALEGISPELGPTLDTLQLDVADFATTIWQQMEELGMAPALQPTQGAMPAFASAFQRRAGGVLVASHLQSFLEVSYRVLRHLAQP | 10 % of hG-CSF | 
G-CSF variant K16/34/40R S53K, non-conjugated (ligand) TPLGPASSLPQSFLLRCLEQVRKIQGDGAALQERLCATYRLCHPEELVLLGHKLGIPWAPLSSCPSQALQLAGCLSQLHSGLFLYQGLLQALEGISPELGPTLDTLQLDVADFATTIWQQMEELGMAPALQPTQGAMPAFASAFQRRAGGVLVASHLQSFLEVSYRVLRHLAQP | 5 % of hG-CSF | 
G-CSF variant K16/34/40R L3K, non-conjugated (ligand) TPKGPASSLPQSFLLRCLEQVRKIQGDGAALQERLCATYRLCHPEELVLLGHSLGIPWAPLSSCPSQALQLAGCLSQLHSGLFLYQGLLQALEGISPELGPTLDTLQLDVADFATTIWQQMEELGMAPALQPTQGAMPAFASAFQRRAGGVLVASHLQSFLEVSYRVLRHLAQP | 50 % of hG-CSF | 
G-CSF variant K16/34/40R L3K conjugated to SPA-PEG 5000 (ligand, SPA-PEG 5000 conjugated to the available PEGylation sites) TPKGPASSLPQSFLLRCLEQVRKIQGDGAALQERLCATYRLCHPEELVLLGHSLGIPWAPLSSCPSQALQLAGCLSQLHSGLFLYQGLLQALEGISPELGPTLDTLQLDVADFATTIWQQMEELGMAPALQPTQGAMPAFASAFQRRAGGVLVASHLQSFLEVSYRVLRHLAQP |  | 25 % of hG-CSF
G-CSF variant K16/23/34/40R, non-conjugated (ligand) TPLGPASSLPQSFLLRCLEQVRRIQGDGAALQERLCATYRLCHPEELVLLGHSLGIPWAPLSSCPSQALQLAGCLSQLHSGLFLYQGLLQALEGISPELGPTLDTLQLDVADFATTIWQQMEELGMAPALQPTQGAMPAFASAFQRRAGGVLVASHLQSFLEVSYRVLRHLAQP | 20 % of hG-CSF | 
G-CSF variant K16/23/40R conjugated to SPA-PEG 5000 (ligand, SPA-PEG 5000 conjugated to the available PEGylation sites) TPLGPASSLPQSFLLRCLEQVRRIQGDGAALQEKLCATYRLCHPEELVLLGHSLGIPWAPLSSCPSQALQLAGCLSQLHSGLFLYQGLLQALEGISPELGPTLDTLQLDVADFATTIWQQMEELGMAPALQPTQGAMPAFASAFQRRAGGVLVASHLQSFLEVSYRVLRHLAQP |  | 5 % of hG-CSF
G-CSF variant 16R, non-conjugated (ligand) TPLGPASSLPQSFLLRCLEQVRKIQGDGAALQEKLCATYKLCHPEELVLLGHSLGIPWAPLSSCPSQALQLAGCLSQLHSGLFLYQGLLQALEGISPELGPTLDTLQLDVADFATTIWQQMEELGMAPALQPTQGAMPAFASAFQRRAGGVLVASHLQSFLEVSYRVLRHLAQP | 100 % of hG-CSF | 
G-CSF variant K16/34/40R conjugated to SPA-PEG 5000 (ligand, SPA-PEG 5000 conjugated to the available PEGylation sites) TPLGPASSLPQSFLLRCLEQVRKIQGDGAALQERLCATYRLCHPEELVLLGHSLGIPWAPLSSCPSQALQLAGCLSQLHSGLFLYQGLLQALEGISPELGPTLDTLQLDVADFATTIWQQMEELGMAPALQPTQGAMPAFASAFQRRAGGVLVASHLQSFLEVSYRVLRHLAQP |  | 30 % of hG-CSF
G-CSF variant K16/34/40R Q70K, non-conjugated (ligand) TPLGPASSLPQSFLLRCLEQVRKIQGDGAALQERLCATYRLCHPEELVLLGHSLGIPWAPLSSCPSQALKLAGCLSQLHSGLFLYQGLLQALEGISPELGPTLDTLQLDVADFATTIWQQMEELGMAPALQPTQGAMPAFASAFQRRAGGVLVASHLQSFLEVSYRVLRHLAQP | 30 % of hG-CSF | 
G-CSF variant K16/34/40R S62K conjugated to SPA-PEG 5000 (ligand, SPA-PEG 5000 conjugated to the available PEGylation sites) TPLGPASSLPQSFLLRCLEQVRKIQGDGAALQERLCATYRLCHPEELVLLGHSLGIPWAPLKSCPSQALQLAGCLSQLHSGLFLYQGLLQALEGISPELGPTLDTLQLDVADFATTIWQQMEELGMAPALQPTQGAMPAFASAFQRRAGGVLVASHLQSFLEVSYRVLRHLAQP |  | 0.5 % of hG-CSF
G-CSF variant K16/34/40R S66K, non-conjugated (ligand) TPLGPASSLPQSFLLRCLEQVRKIQGDGAALQERLCATYRLCHPEELVLLGHSLGIPWAPLSSCPKQALQLAGCLSQLHSGLFLYQGLLQALEGISPELGPTLDTLQLDVADFATTIWQQMEELGMAPALQPTQGAMPAFASAFQRRAGGVLVASHLQSFLEVSYRVLRHLAQP | 20 % of hG-CSF | 
G-CSF variant K16/34/40R Q67K conjugated to SPA-PEG 5000 (ligand, SPA-PEG 5000 conjugated to the available PEGylation sites) TPLGPASSLPQSFLLRCLEQVRKIQGDGAALQERLCATYRLCHPEELVLLGHSLGIPWAPLSSCPSKALQLAGCLSQLHSGLFLYQGLLQALEGISPELGPTLDTLQLDVADFATTIWQQMEELGMAPALQPTQGAMPAFASAFQRRAGGVLVASHLQSFLEVSYRVLRHLAQP |  | 0.2 % of hG-CSF
G-CSF variant K16/34/40R E46K conjugated to SPA-PEG 5000 (ligand, SPA-PEG 5000 conjugated to the available PEGylation sites) TPLGPASSLPQSFLLRCLEQVRKIQGDGAALQERLCATYRLCHPEKLVLLGHSLGIPWAPLSSCPSQALQLAGCLSQLHSGLFLYQGLLQALEGISPELGPTLDTLQLDVADFATTIWQQMEELGMAPALQPTQGAMPAFASAFQRRAGGVLVASHLQSFLEVSYRVLRHLAQP |  | 1 % of hG-CSF
G-CSF variant K16/34/40R S76, non-conjugated (ligand) TPLGPASSLPQSFLLRCLEQVRKIQGDGAALQERLCATYRLCHPEELVLLGHSLGIPWAPLSSCPSQALQLAGCLKQLHSGLFLYQGLLQALEGISPELGPTLDTLQLDVADFATTIWQQMEELGMAPALQPTQGAMPAFASAFQRRAGGVLVASHLQSFLEVSYRVLRHLAQP | 50 % of hG-CSF | 
G-CSF variant K16/34/40R S53K conjugated to SPA-PEG 5000 (ligand, SPA-PEG 5000 conjugated to the available PEGylation sites) TPLGPASSLPQSFLLRCLEQVRKIQGDGAALQERLCATYRLCHPEELVLLGHKLGIPWAPLSSCPSQALQLAGCLSQLHSGLFLYQGLLQALEGISPELGPTLDTLQLDVADFATTIWQQMEELGMAPALQPTQGAMPAFASAFQRRAGGVLVASHLQSFLEVSYRVLRHLAQP |  | 0.5 % of hG-CSF
G-CSF variant K16/34/40R, non-conjugated (ligand) TPLGPASSLPQSFLLRCLEQVRKIQGDGAALQERLCATYRLCHPEELVLLGHSLGIPWAPLSSCPSQALQLAGCLSQLHSGLFLYQGLLQALEGISPELGPTLDTLQLDVADFATTIWQQMEELGMAPALQPTQGAMPAFASAFQRRAGGVLVASHLQSFLEVSYRVLRHLAQP | 35 % of hG-CSF | 
G-CSF variant K16/34/40R Q67K, non-conjugated (ligand) TPLGPASSLPQSFLLRCLEQVRKIQGDGAALQERLCATYRLCHPEELVLLGHSLGIPWAPLSSCPSKALQLAGCLSQLHSGLFLYQGLLQALEGISPELGPTLDTLQLDVADFATTIWQQMEELGMAPALQPTQGAMPAFASAFQRRAGGVLVASHLQSFLEVSYRVLRHLAQP | 10 % of hG-CSF | 
G-CSF variant K16/34/40R S62K, non-conjugated (ligand) TPLGPASSLPQSFLLRCLEQVRKIQGDGAALQERLCATYRLCHPEELVLLGHSLGIPWAPLKSCPSQALQLAGCLSQLHSGLFLYQGLLQALEGISPELGPTLDTLQLDVADFATTIWQQMEELGMAPALQPTQGAMPAFASAFQRRAGGVLVASHLQSFLEVSYRVLRHLAQP | 10 % of hG-CSF | 
G-CSF variant K16/34/40R S66K conjugated to SPA-PEG 5000 (ligand, SPA-PEG 5000 conjugated to the available PEGylation sites) TPLGPASSLPQSFLLRCLEQVRKIQGDGAALQERLCATYRLCHPEELVLLGHSLGIPWAPLSSCPKQALQLAGCLSQLHSGLFLYQGLLQALEGISPELGPTLDTLQLDVADFATTIWQQMEELGMAPALQPTQGAMPAFASAFQRRAGGVLVASHLQSFLEVSYRVLRHLAQP |  | 2 % of hG-CSF
G-CSF without N-terminal Histidine tag conjugated to SPA-PEG 5000 (ligand, SPA-PEG 5000 conjugated to the available PEGylation sites) TPLGPASSLPQSFLLKCLEQVRKIQGDGAALQEKLCATYKLCHPEELVLLGHSLGIPWAPLSSCPSQALQLAGCLSQLHSGLFLYQGLLQALEGISPELGPTLDTLQLDVADFATTIWQQMEELGMAPALQPTQGAMPAFASAFQRRAGGVLVASHLQSFLEVSYRVLRHLAQP |  | 0.1 % of hG-CSF
G-CSF variant K16/34/40R Q70K conjugated to SPA-PEG 5000 (ligand, SPA-PEG 5000 conjugated to the available PEGylation sites) TPLGPASSLPQSFLLRCLEQVRKIQGDGAALQERLCATYRLCHPEELVLLGHSLGIPWAPLSSCPSQALKLAGCLSQLHSGLFLYQGLLQALEGISPELGPTLDTLQLDVADFATTIWQQMEELGMAPALQPTQGAMPAFASAFQRRAGGVLVASHLQSFLEVSYRVLRHLAQP |  | 20 % of hG-CSF
G-CSF variant K16/23/34/40R conjugated to SPA-PEG 5000 (ligand, SPA-PEG 5000 conjugated to the available PEGylation sites) TPLGPASSLPQSFLLRCLEQVRRIQGDGAALQERLCATYRLCHPEELVLLGHSLGIPWAPLSSCPSQALQLAGCLSQLHSGLFLYQGLLQALEGISPELGPTLDTLQLDVADFATTIWQQMEELGMAPALQPTQGAMPAFASAFQRRAGGVLVASHLQSFLEVSYRVLRHLAQP |  | 15 % of hG-CSF
